The results in this text go back to patent US20180038859A1.

Targets include CXCR1 (human) (UniProt P25024); hCCR2b (human) (UniProt P41597); hCCR2b (human), P41597.
Holding throughout (assay): cell-based or functional assay

Sequence of hCCR2b (human) (P41597 whole entry): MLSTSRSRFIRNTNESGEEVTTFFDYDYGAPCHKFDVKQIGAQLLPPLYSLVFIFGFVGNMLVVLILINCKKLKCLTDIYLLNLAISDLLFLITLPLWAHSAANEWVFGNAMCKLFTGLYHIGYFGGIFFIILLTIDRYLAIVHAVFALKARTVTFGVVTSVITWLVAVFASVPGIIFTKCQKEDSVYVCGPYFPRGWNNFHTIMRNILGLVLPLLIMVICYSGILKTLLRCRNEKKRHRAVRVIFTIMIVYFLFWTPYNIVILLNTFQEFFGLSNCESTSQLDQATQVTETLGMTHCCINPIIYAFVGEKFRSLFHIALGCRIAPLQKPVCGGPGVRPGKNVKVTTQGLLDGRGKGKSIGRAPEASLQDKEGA
Sequence of CXCR1 (human) (P25024 whole entry): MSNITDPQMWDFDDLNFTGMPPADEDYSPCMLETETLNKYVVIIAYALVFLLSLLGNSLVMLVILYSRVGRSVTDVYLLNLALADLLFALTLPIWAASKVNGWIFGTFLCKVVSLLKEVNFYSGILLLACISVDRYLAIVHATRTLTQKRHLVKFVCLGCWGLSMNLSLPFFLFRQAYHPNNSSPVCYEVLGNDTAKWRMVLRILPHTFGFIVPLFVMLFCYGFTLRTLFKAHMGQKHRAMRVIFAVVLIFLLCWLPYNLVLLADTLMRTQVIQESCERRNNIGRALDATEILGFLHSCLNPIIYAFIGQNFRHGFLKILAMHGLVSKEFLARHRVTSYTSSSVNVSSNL
Sequence of hCCR2b (human), P41597 (P41597 whole entry): as the sequence (P41597 whole entry) above

Molecule “recombinant native IL-8 (from UniProt P10145 28-99) (ligand)” registered an EC50, agonist activity in an Aequorin assay in the test with CXCR1 (human) of 5.2 nM.
In the case of “recombinant native MCP-1 (from UniProt P13500 24-99) (ligand)”, the EC50, agonist activity in an Aequorin assay in the test with hCCR2b (human) was 3.1 nM.
Molecule “recombinant native MCP-2 (from UniProt P80075 24-99) (ligand)” yielded an EC50, activity (partial agonist) in an Aequorin assay with hCCR2b (human) of 23.5 nM.

B1: biotinMCP-2 (CCL8), P80075 24-99 (ligand)
chain: QPDSVSIPITCCFNVINRKIPIQRLESYTRITNIQCPKEAVIFKTKRGKEVCADPKERWVRDSMKHLDQIFQNLKP
modifications: here or on the partner: pyroGlu at position 1 (replaces Gln1); Lys75 epsilon-amino PEG-Biotin; C-terminal amide
The molecule B1 had an EC50, activity (partial agonist) in an Aequorin assay with hCCR2b (human), P41597 of 50.9 nM.
